Substrate in the series: CC(=O)N[C@H]1[C@H](Oc2ccc([N+](=O)[O-])cc2)O[C@H](CO)[C@@H](O)[C@@H]1O
The experiment in a line: purified protein. As to conditions: pH 5.5, 30 °C.

B1: OfHex2 (Ostrinia furnacalis) (protein)
chain: IYNNNPGPKYPPTKGEVWPKPQYQKLERYYFTVNTSAFKIKATNHTCPILAKAIERYSFIMRNTFNLDLNRKPKTSRHRLPRETNSEDPYYQGLLKELDIELISPCEEYPYFNMDESYELTISTTAKLLSSSIWGILRGLESWSHLLYLTDDKDGVSIDICVNRTHIADFPRYAHRGLLLDTGRHFISMSNILKTLDAMAMNKLNVFHWHIVDDQSFPYQSEKFPDLSGKGAFDPSLVYTKDDIARVVQYATERGIRVLPEFDVPGHTRSWGEAFPNVLTECFSDGKVVGVGPMNPTVNTTYKLFQELMEEVQEWFPDKYFHIGGDEVQFDCWESNPDLQQYMKDHHMTATQLHALFMKNVIPLLGNNTKPIVWQEVFDVGVPLSSDTIIHVWKNGWVEEMVKILKAGHRLIFSASWYLDHLKTGGDWEDMYMADPRLMVNLVDDTAPLDNIVGGEACMWGEVVDDTNVINRVWPRTSAAAERLWSAGLASNSLERNVRLSILDKARHRIEEHACRMRRRAINAQPPNGPGFCVGAKLF
Turning to B1, the Michaelis constant (Km) was 463 ± 27 µM, the kcat is 151 ± 6.21 s⁻¹ and the specificity constant (kcat/Km) came out at 326000 M⁻¹ s⁻¹.

One may read the Km as the concentration of substrate that gives half-maximal velocity. The term kcat denotes the number of substrate molecules converted per active site and unit of time at saturation. One may read the kcat/Km as the second-order rate constant that governs catalysis at low substrate concentration.

Source of the values: publication PMC3445047.
